Measurements: the supplement of paper PMC9732359
± gives the uncertainty stated by the source.

Assay: protein stability index of a GFP-peptide fusion (yeast GPS) (PSI 1-4); higher = more stable; sorted into four equal gates, so the index is relative within each strain
Procedure, shortened: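 The protein stability index combines read frequencies across sorting gates, each weighted by its gate number and then summed. To obtain those frequencies, a pooled yeast library of GFP fusions to tiled 17-residue yeast protein peptides, on a plasmid also expressing Cherry, was grown to mid-log phase in leucine-free medium. The cells were sorted into four equal gates by GFP/Cherry ratio before plasmid amplification by PCR and Illumina sequencing.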

Row | Sequence | protein stability index (doa10∆) | protein stability index (pdr5∆) | protein stability index (san1∆) | protein stability index (ubr1∆)
1 | QVEYALESISHAGTAIG [PRE9] | 2.34 ± 0.077 | 2.33 ± 0.083 | 2.4 ± 0.082 | 2.52 ± 0.07
2 | QRKEIKDRISSCSSKEK [SMC4] | 2.28 ± 0.1 | 2.7 ± 0.063 | 2.49 ± 0.12 | 2.89 ± 0.09
3 | IGSNGSGKSNFFAAIRF [SMC3] | 3.03 ± 0.068 | 3.07 ± 0.066 | 3.02 ± 0.05 | 3.05 ± 0.039
4 | YEDEELSRAEYDSDSDS [LIN1] | 3.19 ± 0.1 | 3.33 ± 0.087 | 3.08 ± 0.057 | 3.23 ± 0.055
5 | KGVLLYGPPGTGKTLLA [RPT4] | 2.51 ± 0.045 | 2.58 ± 0.041 | 2.57 ± 0.048 | 2.29 ± 0.035
6 | LDRRFEIFFKKDSLWQS [FAS1] | 3.15 ± 0.13 | 3.16 ± 0.11 | 2.52 ± 0.26 | 2.91 ± 0.061
7 | AIDYEPEYEKAMQYVCG [SMC1] |  |  | 2.8 ± 0.13 | 2.44 ± 0.11
8 | KGGSLYGLGLIYAGFGR [RPN2] | 2.15 ± 0.095 | 2.28 ± 0.086 | 2.35 ± 0.063 | 2 ± 0.062
9 | LQNNSDSESDSDSETNH [SKP1] | 2.76 ± 0.065 | 3.19 ± 0.074 | 2.84 ± 0.055 | 2.82 ± 0.082
10 | FAGVASMNVTLGVPRIK [RPO31] | 2.82 ± 0.095 | 2.78 ± 0.086 | 2.94 ± 0.079 | 2.76 ± 0.064
11 | AMSLYHSPFPFNRTKGK [PRP8] | 2.11 ± 0.04 | 2.08 ± 0.047 | 1.65 ± 0.07 | 1.98 ± 0.03
12 | KFGACVAQGIMNAGGRN [RPN2] | 3.02 ± 0.14 | 2.73 ± 0.28 | 2.52 ± 0.23 | 2.52 ± 0.13
13 | KKIVDSKKLNLKIHQSH [YMR129W/POM152] | 2.85 ± 0.067 | 2.7 ± 0.056 | 2.44 ± 0.17 | 2.69 ± 0.062
14 | SSDELKVIEEQLKHTKL [SMC4] | 3.27 ± 0.061 | 3.3 ± 0.077 | 3.04 ± 0.067 | 3.25 ± 0.058
15 | ETHSKKRKKEANEEPNT [ITC1] | 2.69 ± 0.096 | 2.6 ± 0.072 | 3.13 ± 0.058 | 2.17 ± 0.058
16 | NMFELAQQLVGVYKRDN [SMC4] | 1.08 ± 0.11 | 1.61 ± 0.12 | 1.61 ± 0.16 | 1.37 ± 0.13
17 | SEYSSEASNTPIEHQFN [PRE7] | 3.16 ± 0.078 | 3.21 ± 0.072 | 3 ± 0.036 | 3.3 ± 0.1

Row | Sequence | protein stability index (doa10∆) | protein stability index (pdr5∆) | protein stability index (san1∆) | protein stability index (ubr1∆)
18 | TSTDFPGFSKDAENEWN [RPC40] |  | 3.1 ± 0.22 |  | 
19 | QHYLDTATAPRLFDKLK [QCR6] | 2.96 ± 0.055 | 3.04 ± 0.045 | 2.84 ± 0.061 | 2.76 ± 0.091
20 | EQIDENWSKEDLQKLLK [SWI3] | 3.16 ± 0.067 | 3.08 ± 0.085 | 3.02 ± 0.073 | 3.26 ± 0.058
21 | VRILRLITTNSVEEVIL [SNF2] | 2.3 ± 0.093 | 2.12 ± 0.06 | 2.31 ± 0.081 | 1.68 ± 0.033
22 | TYLTQEILILINDPTNK [SIN4] | 1.31 ± 0.06 | 1.55 ± 0.051 | 1.36 ± 0.091 | 1.26 ± 0.05
23 | QKNMNDLLRSQLTSLEK [YIL149C/MLP2] | 2.89 ± 0.073 | 2.17 ± 0.056 | 1.96 ± 0.075 | 2.35 ± 0.05
24 | NVTETYSVYLIHEIRLN [SIR3] | 2.59 ± 0.23 | 1.98 ± 0.099 | 2.42 ± 0.14 | 2.37 ± 0.066
25 | DPPNEGDPFDYKAQADT [RPB3] | 3.18 ± 0.13 | 3.42 ± 0.12 | 3.34 ± 0.12 | 3.12 ± 0.073
26 | RIKLATTSERVSNENKK [RRI1] | 2.88 ± 0.063 | 3.08 ± 0.071 | 2.94 ± 0.066 | 3.1 ± 0.11
27 | ALASIQTFNFDSFENYF [RPN12] | 2.65 ± 0.048 | 2.77 ± 0.069 | 2.51 ± 0.096 | 2.82 ± 0.054
28 | NSDLEFNTFWDEKGNEI [ARP9] | 3.41 ± 0.08 | 3.25 ± 0.12 | 3.31 ± 0.12 | 3.34 ± 0.077
29 | EVTEGQAEATEWAEENA [RPS0B] | 2.44 ± 0.27 | 3.22 ± 0.22 | 2.44 ± 0.17 | 2.44 ± 0.14
30 | ELENNEFTENELNVDSM [ITC1] | 3.38 ± 0.07 | 3.21 ± 0.073 | 3.33 ± 0.065 | 3.27 ± 0.069
31 | VAIQQGDIKPEFSPRLH [YML103C/NUP188] | 2.45 ± 0.11 | 2.84 ± 0.096 | 3.07 ± 0.099 | 2.83 ± 0.068
32 | RSNFRVNLSQEALQYDP [SNU114] | 2.69 ± 0.074 | 2.31 ± 0.09 | 2.93 ± 0.047 | 3.1 ± 0.088
33 | WLAAATATGIKVFSLDP [ASC1] | 2.58 ± 0.049 | 2.69 ± 0.045 | 2.81 ± 0.036 | 2.43 ± 0.029
34 | GNQRKILQYSRTWYESF [YJR042W/NUP85] | 2.36 ± 0.099 | 2.79 ± 0.1 | 2.28 ± 0.17 | 2.21 ± 0.21
